From the FLAb antibody collection

Assay: melting temperature

Sequence | Tm (Circular dichroism) [°C] | Tm (nanoDSF) [°C] | other results
QVQLVESGGGLVQAGGSLRLSCAVSGLGAHRVGWFRRAPGKEREFVAAIGANGGNTNYLDSVKGRFTISRDNAKNTIYLQMNSLKPQDTAVYYCAARDIETAEYTYWGQGTQVTVSS |  |  | Tm (DSF (SYPRO)): 72.8 °C
QVQLVESGGGLVQPGGSLRLSCAASGDTYGSYWMGWFRQAPGQGLEAVAAINRGGGYTVYADSVKGRFTISRDNSKNTLYLQMNSLRAEDTAVYYCAASGVLGGLHEDWFNYWGQGTLVTVSSHHHHHH | 74 |  | 
QVQLVESGGGLVQPGGSLRLSCAASGYTYISGWFRQAPGQGLEAVAAIRSSDGTTYYADSVKGRFTISRDNSKNTLYLQMNSLRAEDTAVYYCAATEVAGWPLDIGIYDYWGQGTLVTVSS | 63.4 |  | 
QVQLVESGGGSVQAGGSLRLSCAASGSISSITYLGWFRQAPGKEREGVAALSTSSGTTYYADSVKGRFTVSLDNAENTVYLQMNSLKPEDTALYYCAAASSGSSSPLSSSSYTYWGQGTQVTVSS |  |  | Tm (DSF (SYPRO)): 95 °C
TGGALVQAGGSLRLSCAASETSSVSLSWMGWYRQAPGKERELVAGINRDRPKYKESVKGRFTISRDNAQNTVYLQMNSLKPEDTAVYYCNTVPPRGDYWGQGTQV |  | 65.7 | 
TGGGLVQAGASLRLSCAASGRTFSTDHMGWFRQAPQKEREFVAAINAWSGLSIYYADSVKGRFTISRDNDKKTAYLQMNSLKPEDTAVYYCAAKEMGRGWVPQSSDDYDAWGQGTQV |  | 66.6 | 
TGGGLVQPGGSLRLSCAASGSISSINAMGWYRQAPGKQRELVAAITIRGNTVYGDSVKGRFTVSRDNAKNTVYLQMNSLKPEDTAVYYCNAKSTPSLYAAGYGVDYWGEGTLV |  | 69.8 | 
TGGGWVQAGGSLRLSCAASGRAASGNAMAWFRQAPGKEREFVALISWSGGRPYYANSVKGRFAISRDNATNTVYLQMNRLKPEDTAVYYCAASPTIAILPTPYDYWGQGTQV |  | 75.3 | 
TRVDQTPRTATKETGESLTIICVLTDTSCVLHSTSWFRKNPGTTDWERMSIGGRYVESVNKGAKSFSLRIKDLTVADSATYYCKAQSHEYMEVCPYDWYDGAGTVLTVK | 55 |  | 
TRVDQTPRTATKETGESLTINCVLTGTSCSLYSTSWFRKNPGTTDWERISIGGRYVESVNKGAKSFSLRIKDLTVADSATYYCKAQKHCGYDWYDGAGTALTVK | 72 |  | 
